Measurements published in PMC6372068 (Nature, 2018).

Molecular target: T1, glutamyl-tRNA synthetase GluRS, C-terminally fused to GFP (S. cerevisiae, UniProt P46655 1-708)
T1 sequence: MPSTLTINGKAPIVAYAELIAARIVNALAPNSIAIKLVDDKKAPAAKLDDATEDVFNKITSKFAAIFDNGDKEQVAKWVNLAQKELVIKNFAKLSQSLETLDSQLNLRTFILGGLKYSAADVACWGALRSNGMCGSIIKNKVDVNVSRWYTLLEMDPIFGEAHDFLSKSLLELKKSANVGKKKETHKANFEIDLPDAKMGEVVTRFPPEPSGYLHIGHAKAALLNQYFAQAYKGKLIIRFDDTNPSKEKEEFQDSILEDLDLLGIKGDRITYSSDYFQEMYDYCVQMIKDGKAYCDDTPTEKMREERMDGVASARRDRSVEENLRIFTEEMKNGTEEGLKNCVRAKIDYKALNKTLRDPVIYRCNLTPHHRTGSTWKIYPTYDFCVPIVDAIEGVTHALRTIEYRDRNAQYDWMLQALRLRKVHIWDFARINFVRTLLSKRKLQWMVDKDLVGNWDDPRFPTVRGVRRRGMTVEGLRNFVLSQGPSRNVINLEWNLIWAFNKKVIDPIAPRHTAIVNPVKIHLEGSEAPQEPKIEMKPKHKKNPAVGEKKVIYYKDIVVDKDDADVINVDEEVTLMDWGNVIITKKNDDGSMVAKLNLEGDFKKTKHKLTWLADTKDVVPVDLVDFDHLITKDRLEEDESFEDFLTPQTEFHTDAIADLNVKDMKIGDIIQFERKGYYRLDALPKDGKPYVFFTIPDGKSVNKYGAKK
Assay: selective ribosome profiling

B1: nascent MetRS (ribosome-nascent chain complexes) (natural protein)
chain: MSFLISFDKSKKHPAHLQLANNLKIALALEYASKNLKPEVDNDNAAMELRNTKEPFLLFDANAILRYVMDDFEGQTSDKYQFALASLQNLLYHKELPQQHVEVLTNKAIENYLVELKEPLTTTDLILFANVYALNSSLVHSKFPELPSKVHNAVALAKKHVPRDSSSFKNIGAVKIQADLTVKPKDSEILPKPNERNILITSALPYVNNVPHLGNIIGSVLSADIFARYCKGRNYNALFICGTDEYGTATETKALEEGVTPRQLCDKYHKIHSDVYKWFQIGFDYFGRTTTDKQTEIAQHIFTKLNSNGYLEEQSMKQLYCPVHNSYLADRYVEGECPKCHYDDARGDQCDKCGALLDPFELINPRCKLDDASPEPKYSDHIFLSLDKLESQISEWVEKASEEGNWSKNSKTITQSWLKDGLKPRCITRDLVWGTPVPLEKYKDKVLYVWFDATIGYVSITSNYTKEWKQWWNNPEHVSLYQFMGKDNVPFHTVVFPGSQLGTEENWTMLHHLNTTEYLQYENGKFSKSRGVGVFGNNAQDSGISPSVWRYYLASVRPESSDSHFSWDDFVARNNSELLANLGNFVNRLIKFVNAKYNGVVPKFDPKKVSNYDGLVKDINEILSNYVKEMELGHERRGLEIAMSLSARGNQFLQENKLDNTLFSQSPEKSDAVVAVGLNIIYAVSSIITPYMPEIGEKINKMLNAPALKIDDRFHLAILEGHNINKAEYLFQRIDEKKIDEWRAKYGGQQV
For B1, the “fold enrichment in footprints” value was no less than 30 fold.
